This data set deals with the molecule itself. Kind of data set: cryo-EM structure; purified GluK2 EM in DDM micelles without ligand (apo; residual glutamate washed out on Strep-Tactin), 50 mM Tris-Cl pH 8.0, 150 mM NaCl, 1 mM DDM, ~4 mg/ml; single-particle cryo-EM, C2 imposed, 3.0 Å.

This note sets out measurements from paper PMC10705692, “Structural dynamics of GluK2 kainate receptors in apo and partial agonist bound states” (Research Square, 2023).

B1: full-length rat GluK2 KAR, cryo-EM construct (GluK2 EM) (receptor, UniProt P42260 32-908, looked up)
chain: TTHVLRFGGIFEYVESGPMGAEELAFRFAVNTINRNRTLLPNTTLTYDTQKINLYDSFEASKKACDQLSLGVAAIFGPSHSSSANAVQSICNALGVPHIQTRWKHQVSDNKDSFYVSLYPDFSSLSRAILDLVQFFKWKTVTVVYDDSTGLIRLQELIKAPSRYNLRLKIRQLPADTKDAKPLLKEMKRGKEFHVIFDCSHEMAAGILKQALAMGMMTEYYHYIFTTLDLFALDVEPYRYSGVNMTGFRILNTENTQVSSIIEKWSMERLQAPPKPDSGLLDGFMTTDAALMYDAVHVVSVAVQQFPQMTVSSLQCNRHKPWRFGTRFMSLIKEAHWEGLTGRITFNKTNGLRTDFDLDVISLKEEGLEKIGTWDPASGLNMTESQKGKPANITDSLSNRSLIVTTILEEPYVLFKKSDKPLYGNDRFEGYCIDLLRELSTILGFTYEIRLVEDGKYGAQDDVNGQWNGMVRELIDHKADLAVAPLAITYVREKVIDFSKPFMTLGISILYRKPNGTNPGVFSFLNPLSPDIWMYVLLAYLGVSVVLFVIARFSPYEWYNPHPSNPDSDVVENNFTLLNSFWFGVGALMQQGSELMPKALSTRIVGGIWWFFTLIIISSYTANLAAFLTVERMESPIDSADDLAKQTKIEYGAVEDGATMTFFKKSKISTYDKMWAFMSSRRQSVLVKSNEEGIQRVLTSDYAFLMESTTIEFVTQRNCNLTQIGGLIDSKGYGVGTPMGSPYRDKITIAILQLQEEGKLHMMKEKWWRGNGCPEEESKEASALGVQNIGGIFIVLAAGLVLSVFVAVGEFLYKSKKNAQLEKRSFCSAMVEELRMSLKCQRRLKHKPQAPVIVKTEEVINMHTFNDRRLPGKETMA
modifications: N-glycosylation at Asn 67, 73, 275, 378, 412, 423, 430, 546 and 751 (LC-MS/MS of the purified protein)
notes: Glutamate receptor ionotropic, kainate 2 (GluK2), rat, full length; RNA-edited at position 567 (I to V), with C576V and C595S; followed by a human rhinovirus 3C protease site and a Twin-Strep tag at the C-terminus; Homotetramer (subunits A-D); No cleavage of the 3C site is described; also called homomeric rat GluK2; GRIK2_RAT; source: Sf9 insect cells (baculovirus, EarlyBac), solubilised in DDM, …
For the protein B1, the “stoichiometry N” value was determined as 4.

A word on the stoichiometry N: it is the number of molecules, sites or subunits per partner or assembly.
